Experimental findings from the supplement of paper PMC9112550, “Optimization of the antimicrobial peptide Bac7 by deep mutational scanning” (BMC Biology, 2022) are described below.
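Further: peptides expressed intracellularly from a pBAD plasmid library in pooled LB shake-flask culture, induced with 0.3% L-arabinose, DNA abundance read by NGS, three biological replicates, DESeq2 with apeglm shrinkage.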

In the data set the test system is Escherichia coli TOP10. Briefly: shrunken log2 fold change of peptide-encoding DNA abundance (4.5 h post-induction vs induction); higher = less antimicrobial activity (less host growth inhibition). The settings on record: time post-induction: 4.5 h; library: site-saturation at positions 5, 18, 19, 20.
Take RRIRKRPPRLPRPRPRPHWGPRP: the “shrunken log2 fold change” value was determined as 0.209. Take RRIRPRPPRLPRPRPRPGYTPRP: the “shrunken log2 fold change” value was -0.0764. On to RRIRERPPRLPRPRPRPSCRPRP, for which the “shrunken log2 fold change” value is -0.249. For RRIRWRPPRLPRPRPRPLKHPRP the value was -0.623; for RRIRCRPPRLPRPRPRPDGRPRP, 0.00474. For RRIRGRPPRLPRPRPRPCQCPRP the value was 0.268. As for RRIRKRPPRLPRPRPRPSELPRP, the “shrunken log2 fold change” value amounted to 0.141. For RRIRSRPPRLPRPRPRPEQAPRP the value was 0.289; for RRIRHRPPRLPRPRPRPDTEPRP, -0.172. With RRIRVRPPRLPRPRPRPSCGPRP the figure was -0.113. On to RRIRSRPPRLPRPRPRPTLPPRP, for which the “shrunken log2 fold change” value came to 0.212. As for RRIRNRPPRLPRPRPRPTGPPRP, the “shrunken log2 fold change” value was determined as 0.126.

Regarding RRIRFRPPRLPRPRPRPFNYPRP, the “shrunken log2 fold change” value was -0.183. With RRIRDRPPRLPRPRPRPPDVPRP the figure was 0.302; with RRIRSRPPRLPRPRPRPSYYPRP, -0.529.

Consider RRIRFRPPRLPRPRPRPCLEPRP, for which the “shrunken log2 fold change” value was -0.489.

In the case of RRIRARPPRLPRPRPRPPLMPRP, the “shrunken log2 fold change” value turned out to be 0.408.

For the sequence RRIRRRPPRLPRPRPRPIMLPRP, the “shrunken log2 fold change” value was -0.272. For RRIRERPPRLPRPRPRPSYPPRP the value was -0.877; for RRIRNRPPRLPRPRPRPIMHPRP, 0.00105. With RRIRMRPPRLPRPRPRPLRTPRP the figure was 3.45. For RRIRQRPPRLPRPRPRPASDPRP the value was 0.197. In the case of RRIRHRPPRLPRPRPRPVLFPRP, the “shrunken log2 fold change” value was -0.0987. With RRIRMRPPRLPRPRPRPWYWPRP, the “shrunken log2 fold change” value was -0.724. Turning to RRIRVRPPRLPRPRPRPVEDPRP, the “shrunken log2 fold change” value was -0.378. Regarding RRIRIRPPRLPRPRPRPANVPRP, the “shrunken log2 fold change” value is -0.0188. Regarding RRIRDRPPRLPRPRPRPTFIPRP, the “shrunken log2 fold change” value was -0.13.

On to RRIRCRPPRLPRPRPRPVNRPRP, for which the “shrunken log2 fold change” value was -0.0405. For RRIRSRPPRLPRPRPRPNRQPRP the value was -0.403.

As to RRIRVRPPRLPRPRPRPRPGPRP, the “shrunken log2 fold change” value came out at 0.627.

In the case of RRIRERPPRLPRPRPRPNIFPRP, the “shrunken log2 fold change” value was -0.302. With RRIRYRPPRLPRPRPRPWTCPRP the figure was -0.362; with RRIRVRPPRLPRPRPRPLGEPRP, -0.162; with RRIRDRPPRLPRPRPRPILKPRP, 0.0239. With RRIRKRPPRLPRPRPRPGFRPRP the figure was 0.942. For RRIRRRPPRLPRPRPRPYPGPRP the value was -0.123; for RRIRHRPPRLPRPRPRPPDIPRP, -0.0817. Consider RRIRDRPPRLPRPRPRPPKHPRP, for which the “shrunken log2 fold change” value amounted to 0.0331. As to RRIRHRPPRLPRPRPRPCYEPRP, the “shrunken log2 fold change” value is -0.185.

For RRIRKRPPRLPRPRPRPYDAPRP, the “shrunken log2 fold change” value was -0.252. With RRIRERPPRLPRPRPRPRMEPRP the figure was -0.00684.

For the sequence RRIRVRPPRLPRPRPRPIDEPRP, the “shrunken log2 fold change” value is 0.0357.

Turning to RRIRLRPPRLPRPRPRPWHPPRP, the “shrunken log2 fold change” value is -0.0174. With RRIRNRPPRLPRPRPRPPEQPRP the figure was 0.112; with RRIRPRPPRLPRPRPRPMFGPRP, -0.253. In the case of RRIRYRPPRLPRPRPRPWQAPRP, the “shrunken log2 fold change” value is -0.0293.

In the case of RRIRQRPPRLPRPRPRPWCRPRP, the “shrunken log2 fold change” value was -0.325.

Turning to RRIRARPPRLPRPRPRPAGPPRP, the “shrunken log2 fold change” value was 0.453.

As for RRIRPRPPRLPRPRPRPTMLPRP, the “shrunken log2 fold change” value is -0.114.

For the sequence RRIRWRPPRLPRPRPRPKMLPRP, the “shrunken log2 fold change” value was 0.149. For RRIRNRPPRLPRPRPRPRGSPRP the value was 0.299. With RRIRNRPPRLPRPRPRPMDTPRP, the “shrunken log2 fold change” value was -0.141. With RRIRARPPRLPRPRPRPEVDPRP, the “shrunken log2 fold change” value was determined as 0.935. On to RRIRYRPPRLPRPRPRPEQRPRP, for which the “shrunken log2 fold change” value was -0.067. As for RRIRERPPRLPRPRPRPQPKPRP, the “shrunken log2 fold change” value was -0.077.

Regarding RRIRWRPPRLPRPRPRPRMWPRP, the “shrunken log2 fold change” value is 0.36. With RRIRYRPPRLPRPRPRPNCHPRP the figure was -0.507. Consider RRIRMRPPRLPRPRPRPKYDPRP, for which the “shrunken log2 fold change” value worked out at 0.114. With RRIRERPPRLPRPRPRPVWCPRP the figure was -0.156; with RRIRLRPPRLPRPRPRPGCMPRP, 0.646. In the case of RRIRLRPPRLPRPRPRPAYNPRP, the “shrunken log2 fold change” value was -0.119. Turning to RRIRLRPPRLPRPRPRPYFSPRP, the “shrunken log2 fold change” value is -0.39. As to RRIRIRPPRLPRPRPRPRCDPRP, the “shrunken log2 fold change” value was -0.0753. With RRIRFRPPRLPRPRPRPMLQPRP the figure was -0.152; with RRIRPRPPRLPRPRPRPRRRPRP, 0.41. For RRIRQRPPRLPRPRPRPQPWPRP the value was 0.141; for RRIRRRPPRLPRPRPRPARMPRP, 0.173; for RRIRSRPPRLPRPRPRPRAIPRP, 0.134.

For the sequence RRIRWRPPRLPRPRPRPVRTPRP, the “shrunken log2 fold change” value stood at 0.955.

As for RRIRARPPRLPRPRPRPEDNPRP, the “shrunken log2 fold change” value was 0.132. For RRIRRRPPRLPRPRPRPEVKPRP, the “shrunken log2 fold change” value turned out to be 0.418.

For the sequence RRIRHRPPRLPRPRPRPCTVPRP, the “shrunken log2 fold change” value was -0.0523.

As to RRIRIRPPRLPRPRPRPTWSPRP, the “shrunken log2 fold change” value worked out at 0.047.

Regarding RRIRRRPPRLPRPRPRPNVGPRP, the “shrunken log2 fold change” value came out at 0.0319.

Regarding RRIRPRPPRLPRPRPRPMRFPRP, the “shrunken log2 fold change” value was 0.0813. Take RRIRNRPPRLPRPRPRPTKGPRP: the “shrunken log2 fold change” value was 0.0423. For the sequence RRIRARPPRLPRPRPRPTNKPRP, the “shrunken log2 fold change” value is -0.0139. With RRIRCRPPRLPRPRPRPAATPRP the figure was 0.776; with RRIRLRPPRLPRPRPRPYSQPRP, -0.0787; with RRIRNRPPRLPRPRPRPIKRPRP, 0.0699. Consider RRIRERPPRLPRPRPRPKDNPRP, for which the “shrunken log2 fold change” value is -0.342. With RRIRCRPPRLPRPRPRPYGCPRP the figure was -0.00123; with RRIRFRPPRLPRPRPRPHGIPRP, -0.00151; with RRIRVRPPRLPRPRPRPGSGPRP, 0.0303.

For RRIRMRPPRLPRPRPRPEWGPRP, the “shrunken log2 fold change” value worked out at 0.437. With RRIRSRPPRLPRPRPRPKTHPRP the figure was -0.0477. Turning to RRIRMRPPRLPRPRPRPTQGPRP, the “shrunken log2 fold change” value was 0.805. Regarding RRIRNRPPRLPRPRPRPRQNPRP, the “shrunken log2 fold change” value was -0.118. Regarding RRIRKRPPRLPRPRPRPLNVPRP, the “shrunken log2 fold change” value stood at 0.252. With RRIRMRPPRLPRPRPRPGAAPRP the figure was 2.24; with RRIRIRPPRLPRPRPRPCRYPRP, -0.317. As to RRIRQRPPRLPRPRPRPGQEPRP, the “shrunken log2 fold change” value is -0.018. For RRIRRRPPRLPRPRPRPWCMPRP the value was -0.107; for RRIRWRPPRLPRPRPRPVKTPRP, 0.00121.

On to RRIRFRPPRLPRPRPRPWFNPRP, for which the “shrunken log2 fold change” value was -0.897.

Consider RRIRYRPPRLPRPRPRPEKAPRP, for which the “shrunken log2 fold change” value was found to be 0.00447. For RRIRWRPPRLPRPRPRPPDKPRP the value was 0.423. With RRIRGRPPRLPRPRPRPNMFPRP the figure was 0.351. Regarding RRIRRRPPRLPRPRPRPCCEPRP, the “shrunken log2 fold change” value is 0.122. For RRIRMRPPRLPRPRPRPFDIPRP, the “shrunken log2 fold change” value was -0.126.

Consider RRIRIRPPRLPRPRPRPPFVPRP, for which the “shrunken log2 fold change” value was found to be 0.104. For RRIRKRPPRLPRPRPRPHSSPRP the value was 0.0945; for RRIRERPPRLPRPRPRPPILPRP, -0.471. With RRIRPRPPRLPRPRPRPGPPPRP the figure was 0.366; with RRIRTRPPRLPRPRPRPPEVPRP, 0.0579; with RRIRFRPPRLPRPRPRPVTKPRP, 0.19. With RRIRARPPRLPRPRPRPNSKPRP the figure was -0.155. On to RRIRMRPPRLPRPRPRPSETPRP, for which the “shrunken log2 fold change” value was found to be 0.814. With RRIRIRPPRLPRPRPRPWAEPRP the figure was -0.167; with RRIRDRPPRLPRPRPRPRANPRP, 0.567; with RRIRKRPPRLPRPRPRPEMHPRP, 0.0496.

RRIRKRPPRLPRPRPRPARQPRP: the “shrunken log2 fold change” value is 0.356. For RRIRKRPPRLPRPRPRPNIWPRP, the “shrunken log2 fold change” value came out at 0.519. As for RRIRHRPPRLPRPRPRPRQRPRP, the “shrunken log2 fold change” value was found to be 0.162. For RRIRFRPPRLPRPRPRPSDWPRP the value was 0.0908. As for RRIRKRPPRLPRPRPRPSGKPRP, the “shrunken log2 fold change” value was -0.424.

On to RRIRHRPPRLPRPRPRPDYEPRP, for which the “shrunken log2 fold change” value stood at 0.00408. RRIRPRPPRLPRPRPRPSNQPRP: the “shrunken log2 fold change” value was -0.45. RRIRYRPPRLPRPRPRPMSSPRP: the “shrunken log2 fold change” value is -0.0121. In the case of RRIRDRPPRLPRPRPRPSRSPRP, the “shrunken log2 fold change” value amounted to 0.0199. With RRIRDRPPRLPRPRPRPKGFPRP the figure was -0.073; with RRIRIRPPRLPRPRPRPTPMPRP, -0.102; with RRIRRRPPRLPRPRPRPYIYPRP, -0.268. Take RRIRGRPPRLPRPRPRPGVQPRP: the “shrunken log2 fold change” value turned out to be 0.739. For RRIRCRPPRLPRPRPRPTEYPRP, the “shrunken log2 fold change” value was -0.564.
